What all share (conditions): 20 nM; 72 h
The subject of data set [1] is MCF10A. The data set is described as follows: 5+ nucleoli phenotype percent effect (relative to siNT 0% and siKIF11 100%); higher = more cells with five or more nucleoli. As to the method: (§1)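 After 72 h, cells were fixed and stained with Hoechst and anti-fibrillarin, and nucleoli per nucleus were counted with CellProfiler. Values are plate-adjusted percent effect for the one-nucleolus and 5+ nucleoli phenotypes, normalised to siNT (0%) and to the positive controls siNOL11 or siKIF11 (100%), as the mean of biological triplicates. Percent viability is the nuclei count relative to siNT.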

The test system of data set [2] is MCF10A. The data set can be described thus: one-nucleolus phenotype percent effect (relative to siNT 0% and siNOL11 100%); higher = more cells with one nucleolus (ribosome biogenesis inhibition). As to the method:
as §1

The test system of data set [3] is MCF10A. The data set is described as follows: percent viability (nuclei count relative to siNT); higher = more viable cells. As to the method:
as §1

As for “CACCCAGAUCUGCGGCCUAAU [hsa-miR-1295b-5p]”, the “5+ nucleoli phenotype percent effect” value in data set [1] was -30.7%. The “one-nucleolus phenotype percent effect” value in data set [2] worked out at 34.4%. Also, in data set [3], the percent viability was 29.9%.
As to “CAGGGAACAGCUGGGUGAGCUGCU [hsa-miR-6750-5p]”, the “5+ nucleoli phenotype percent effect” value in data set [1] stood at 27.2%. Also, the “one-nucleolus phenotype percent effect” value in data set [2] is -6.66%. For the same sequence, the percent viability in data set [3] was found to be 60.6%.
The matching figures for GUAGGUGACAGUCAGGGGCGG [hsa-miR-6800-5p]: -0.87%, 1.11% and 33.9%.
Regarding “AAAAACCACAAUUACUUUUGCACCA [hsa-miR-548aa]”, the “5+ nucleoli phenotype percent effect” value in data set [1] was -30.9%. Besides, the “one-nucleolus phenotype percent effect” value in data set [2] came out at 51.2%. In addition, the percent viability in data set [3] is 16.1%.
The corresponding values for CUGGGUGAGGGCAUCUGUGGU [hsa-miR-6736-5p] are -27%, 34.4% and 24.3%.
As for “CCCUGUUCUAUGCCCUGAGGGA [hsa-miR-1266-3p]”, the “5+ nucleoli phenotype percent effect” value in data set [1] amounted to 47.8%. Further, the “one-nucleolus phenotype percent effect” value in data set [2] is -19.3%. Also, the percent viability in data set [3] is 90.7%.
As for AUAAUACAUGGUUAACCUCUUU [hsa-miR-655], the “5+ nucleoli phenotype percent effect” value in data set [1] was -21.2%. Further, in data set [2], the “one-nucleolus phenotype percent effect” value is 4.84%. Further, the percent viability in data set [3] was 118%.
AUGGCAUCGUCCCCUGGUGGCU [hsa-miR-4642]: the “5+ nucleoli phenotype percent effect” value in data set [1] is -4.74%. The “one-nucleolus phenotype percent effect” value in data set [2] was found to be 16.6%. For the same sequence, the percent viability in data set [3] turned out to be 31.3%.
On to CAAUGUGAUCUUUUGGAUGUA [hsa-miR-8066], for which, in data set [1], the “5+ nucleoli phenotype percent effect” value is -37.9%. Further, in data set [2], the “one-nucleolus phenotype percent effect” value amounted to 56.9%. The percent viability in data set [3] was 30.2%.
The matching figures for “AUGGGGACAGGGAUCAGCAUGGC [hsa-miR-6810-5p]”: -23.9%, 45.5% and 25.9%.
On to UGACCCACCCCUCUCCACCAG [hsa-miR-7114-3p], for which the “5+ nucleoli phenotype percent effect” value in data set [1] is -4.79%. Moreover, in data set [2], the “one-nucleolus phenotype percent effect” value came out at 6.96%. Besides, the percent viability in data set [3] was 35.3%.
For “AUGCUACUCGGAAAUCCCACUGA [hsa-miR-5089-3p]”, the “5+ nucleoli phenotype percent effect” value in data set [1] is -30.6%. In data set [2], the “one-nucleolus phenotype percent effect” value amounted to 12.4%. Further, the percent viability in data set [3] stood at 47.3%.
“AGCAAGGCGGCAUCUCUCUGAU [hsa-miR-4708-3p]”: the “5+ nucleoli phenotype percent effect” value in data set [1] was -21.8%. Besides, the “one-nucleolus phenotype percent effect” value in data set [2] came to 16.1%. Besides, the percent viability in data set [3] was found to be 43.7%.
Consider ACGGAAUAUGUAUACGGAAUAUA [hsa-miR-3669], for which the “5+ nucleoli phenotype percent effect” value in data set [1] is 30.9%. Also, in data set [2], the “one-nucleolus phenotype percent effect” value is -9.77%. Besides, in data set [3], the percent viability is 95.9%.
The matching figures for GGCUAGCAACAGCGCUUACCU [hsa-miR-621]: -15.8%, 15.2% and 51.6%.
The matching figures for “AUCCUCUUUCGUCCUUCCCACU [hsa-miR-6881-3p]”: -36.4%, 22.7% and 49.2%.
The corresponding values for CAUUCAACUAGUGAUUGU [hsa-miR-4272] are 33.7%, -23.4% and 170%.
Turning to ACUGCAGUGAAGGCACUUGUAG [hsa-miR-17-3p], the “5+ nucleoli phenotype percent effect” value in data set [1] is 12.2%. Besides, the “one-nucleolus phenotype percent effect” value in data set [2] is -6.73%. For the same sequence, in data set [3], the percent viability amounted to 70.9%.
For the sequence “AACAACAAAAUCACUAGUCUUCCA [hsa-miR-3529-3p]”, the “5+ nucleoli phenotype percent effect” value in data set [1] is 0.722%. Moreover, the “one-nucleolus phenotype percent effect” value in data set [2] is 14.9%. Besides, in data set [3], the percent viability is 44.1%.
The corresponding values for “AGAUAUUUUGAGUGUUUGGAAUUG [hsa-miR-3145-3p]” are -8.4%, -11.7% and 48.7%.
With “UGGCGGGGGUAGAGCUGGCUGC [hsa-miR-6787-5p]”, the “5+ nucleoli phenotype percent effect” value in data set [1] is -19.2%. The “one-nucleolus phenotype percent effect” value in data set [2] is 30%. Further, the percent viability in data set [3] came out at 23.7%.
“AAACACCAUUGUCACACUCCAC [hsa-miR-3591-3p]”: in data set [1], the “5+ nucleoli phenotype percent effect” value is -27%. The “one-nucleolus phenotype percent effect” value in data set [2] is 32.5%. Also, in data set [3], the percent viability was determined as 27.5%.
For UAGGACUGUGCUUGGCACAUAG [hsa-miR-3169], the “5+ nucleoli phenotype percent effect” value in data set [1] is 20%. Also, the “one-nucleolus phenotype percent effect” value in data set [2] amounted to 1.07%. Also, the percent viability in data set [3] stood at 27.4%.
GAAGGCGCUUCCCUUUGGAGU [hsa-miR-524-3p]: in data set [1], the “5+ nucleoli phenotype percent effect” value was -9.32%. The “one-nucleolus phenotype percent effect” value in data set [2] was 35.1%. Moreover, the percent viability in data set [3] stood at 70.4%.
“UUGAAGAGGAGGUGCUCUGUAGC [hsa-miR-4709-3p]”: in data set [1], the “5+ nucleoli phenotype percent effect” value is -33%. In addition, the “one-nucleolus phenotype percent effect” value in data set [2] was determined as 29.5%. The percent viability in data set [3] was determined as 28%.
The matching figures for AGUAUGUUCUUCCAGGACAGAAC [hsa-miR-567]: 34.9%, 8.77% and 56.1%.
In the case of ACCUGUCUGUGGAAAGGAGCUA [hsa-miR-4421], the “5+ nucleoli phenotype percent effect” value in data set [1] was -6.29%. Besides, in data set [2], the “one-nucleolus phenotype percent effect” value was found to be 15.9%. Also, in data set [3], the percent viability came out at 30.7%.
The corresponding values for UCUGUAGCCUGGGAGCAAUGGGGU [hsa-miR-3137] are -20.3%, 24% and 13.2%.
The corresponding values for UGGAAGGGAGAAGAGCUUUAAU [hsa-miR-3202] are -35.3%, 62.8% and 21.6%.
The matching figures for AAAGUGCUGCGACAUUUGAGCGU [hsa-miR-372]: 52.4%, -16.8% and 64.2%.
Take AGAGUUAACUCAAAAUGGACUA [hsa-miR-4424]: the “5+ nucleoli phenotype percent effect” value in data set [1] amounted to 6.94%. Further, in data set [2], the “one-nucleolus phenotype percent effect” value was -9.95%. In addition, in data set [3], the percent viability was 51.7%.
Consider GAGACUGGGGUGGGGCC [hsa-miR-4463], for which, in data set [1], the “5+ nucleoli phenotype percent effect” value was -7.37%. Further, the “one-nucleolus phenotype percent effect” value in data set [2] is -14.3%. Also, the percent viability in data set [3] was 64.8%.
Consider “AGAAUUGUGGCUGGACAUCUGU [hsa-miR-219-2-3p]”, for which the “5+ nucleoli phenotype percent effect” value in data set [1] was -41.8%. In addition, the “one-nucleolus phenotype percent effect” value in data set [2] was determined as 35.6%. In addition, in data set [3], the percent viability stood at 33.5%.
With UAGGACACAUGGUCUACUUCU [hsa-miR-1197], in data set [1], the “5+ nucleoli phenotype percent effect” value is -9.77%. Moreover, in data set [2], the “one-nucleolus phenotype percent effect” value stood at 7.44%. Moreover, the percent viability in data set [3] came out at 61.7%.
Turning to “AAAAGUUAUUGCGGUUUUGGCU [hsa-miR-548at-5p]”, the “5+ nucleoli phenotype percent effect” value in data set [1] came out at 15%. In data set [2], the “one-nucleolus phenotype percent effect” value is -14.7%. Moreover, the percent viability in data set [3] amounted to 54.1%.
The corresponding values for “CAGGCAGGGAGGUGGGACCAUG [hsa-miR-6808-5p]” are -14.6%, 28.6% and 21.7%.
The corresponding values for “CAACGGAAUCCCAAAAGCAGCUG [hsa-miR-191-5p]” are 2.25%, 11.8% and 29.2%.
The corresponding values for UGGGAGCUGGACUACUUC [hsa-miR-4300] are 16.1%, 21.3% and 19.7%.
“CAAAACUGGCAAUUACUUUUGC [hsa-miR-548a-3p]”: the “5+ nucleoli phenotype percent effect” value in data set [1] is 45.7%. The “one-nucleolus phenotype percent effect” value in data set [2] is -17.2%. In addition, the percent viability in data set [3] was determined as 77.4%.
Take “AGCUCCCUGAAUCCCUGUCCCAG [hsa-miR-7106-3p]”: in data set [1], the “5+ nucleoli phenotype percent effect” value turned out to be 32.5%. The “one-nucleolus phenotype percent effect” value in data set [2] was -19.5%. Also, the percent viability in data set [3] was found to be 74.6%.
For the sequence CGGGGCGGCAGGGGCCUC [hsa-miR-3196], the “5+ nucleoli phenotype percent effect” value in data set [1] was -24.6%. In addition, the “one-nucleolus phenotype percent effect” value in data set [2] was 66%. The percent viability in data set [3] amounted to 13.7%.
The corresponding values for “ACAAAAAAAAAAGCCCAACCCUUC [hsa-miR-3613-3p]” are 16.2%, -10.2% and 91.6%.
Turning to “UAAGUGCUUCCAUGUUUUAGUAG [hsa-miR-302b-3p]”, in data set [1], the “5+ nucleoli phenotype percent effect” value stood at 33.7%. The “one-nucleolus phenotype percent effect” value in data set [2] is -12.2%. For the same sequence, the percent viability in data set [3] turned out to be 74.9%.
With “AUGCACCUGGGCAAGGAUUCUG [hsa-miR-500a-3p]”, the “5+ nucleoli phenotype percent effect” value in data set [1] was -12.9%. The “one-nucleolus phenotype percent effect” value in data set [2] was -2.54%. Further, the percent viability in data set [3] turned out to be 34.2%.
Regarding ACUCCAGCCCCACAGCCUCAGC [hsa-miR-766-3p], the “5+ nucleoli phenotype percent effect” value in data set [1] is -19.8%. For the same sequence, the “one-nucleolus phenotype percent effect” value in data set [2] was 15.5%. The percent viability in data set [3] came out at 39%.
As for CUUCUUGUGCUCUAGGAUUGU [hsa-miR-578], the “5+ nucleoli phenotype percent effect” value in data set [1] is -13.1%. For the same sequence, the “one-nucleolus phenotype percent effect” value in data set [2] worked out at 19.6%. Also, the percent viability in data set [3] was determined as 32.6%.
As to CAGUGCAAUGUUUUCCUU [hsa-miR-4295], the “5+ nucleoli phenotype percent effect” value in data set [1] turned out to be 97.9%. Also, the “one-nucleolus phenotype percent effect” value in data set [2] is -33%. Besides, in data set [3], the percent viability came to 78.5%.
Take AUGCGGACCUGGGUUAGCGGAGU [hsa-miR-4754]: the “5+ nucleoli phenotype percent effect” value in data set [1] was -38.9%. In addition, the “one-nucleolus phenotype percent effect” value in data set [2] was 47.4%. Also, the percent viability in data set [3] amounted to 38.8%.
